Experimental data from doi:10.1101/2024.06.06.597810 (bioRxiv, 2024).

Target: T1, SARS-CoV-2 spike stem helix peptide (residues 1146-1159), displayed on yeast (SARS-CoV-2)
T1 chain: DSFKEELDKYFKNH
Test: flow cytometry on cells
Conditions: partners not purified

B1: S2P6 in single-chain variable fragment (scFv) format (scFv, V domains shown)
VH: EVQLVQSGAEVKKPGASVKVSCKASGYTFTSQYMHWVRQAPGQGLEWIGIINPSGVHTSYAQKFQGRVTLTRDTSTSTLYMELSSLRSEDTAVYYCARGSPKGAFDYWGQGTLVTVSS
VL: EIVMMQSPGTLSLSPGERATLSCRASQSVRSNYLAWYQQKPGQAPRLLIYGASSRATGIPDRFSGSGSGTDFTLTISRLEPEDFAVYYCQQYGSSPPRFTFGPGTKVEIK
notes: not shown: HA, C-terminal, kept
- binding result: binds
